Reference: the supplement of paper PMC6755084

B1: minF1; the commonest letter at each place (parent)
chain: GAGACCGCAACTGAAAAGTTGTTATCAGAAATGGATGGGTTGAATTTCTGCACGTAGAAGCAAAAGGC

Variants of: B1
Assay: fraction ligated after 30 min (ligated reads / total reads); higher = more ligase activity
Details: with F1*subA RNA substrate (template-directed ligation), 42 °C
How it was run: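 Ligated and unligated RNAs from a pool of minimized ligase ribozyme variants were separated on gels, reverse transcribed with barcoded primers and sequenced on a MiSeq. Core bases needed quality ≥30 to pass the filter. Each variant's fraction ligated was then taken as ligated reads over total reads.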

Row | Variant | fraction ligated
1 | GAGACCGCAACTGAAAAGTTGTTATCGGAAATGGATGGGTTGAGTTTCTGCACGTAGAAGCAAAAGGC [A27G A44G] | 0.746
2 | GAGACCGCAACTGAAAAGTTGTTATCGGAAATGGATGGGTTGATTTTCTGCACGTAGAAGCAAAAGGC [A27G A44T] | 0.774
3 | GAGACCGCAACTGAAAAGTTGTTATCGGAAATGGATGGGTTGACTTTCTGCACGTAGAAGCAAAAGGC [A27G A44C] | 0.69
4 | GAGACCGCAACTGAAAAGTTGTTATCGGAAACGGATGGGTTGAATTTCTGCACGTAGAAGCAAAAGGC [A27G T32C] | 0.0134
5 | GAGACCGCAACTGAAAAGTTGTTATCGGAAAAGGATGGGTTGAATTTCTGCACGTAGAAGCAAAAGGC [A27G T32A] | 0.0468
6 | GAGACCGCAACTGAAAAGTTGTTATCGGAAAGGGATGGGTTGAATTTCTGCACGTAGAAGCAAAAGGC [A27G T32G] | 0.0179
7 | GAGACCGCAACTGAAAAGTTGTTATCGGAAATGGAGGGGTTGAATTTCTGCACGTAGAAGCAAAAGGC [A27G T36G] | 0.0614
8 | GAGACCGCAACTGAAAAGTTGTTATCGGAAATGGACGGGTTGAATTTCTGCACGTAGAAGCAAAAGGC [A27G T36C] | 0.0221
9 | GAGACCGCAACTGAAAAGTTGTTATCGGAAATGGAAGGGTTGAATTTCTGCACGTAGAAGCAAAAGGC [A27G T36A] | 0.0472
10 | GAGACCGCAACTGAAAAGTTGTTATCTGAAATGGATGGGTTGAATTTCTGCACGTAGAAGCAAAAGGC [A27T] | 0.824
11 | GAGACCGCAACTGAAAAGTTGTTATCGGAAATTGATGGGTTGAATTTCTGCACGTAGAAGCAAAAGGC [A27G G33T] | 0.807
12 | GAGACCGCAACTGAAAAGTTGTTATCGGAAATCGATGGGTTGAATTTCTGCACGTAGAAGCAAAAGGC [A27G G33C] | 0.35
13 | GAGACCGCAACTGAAAAGTTGTTATCGGAAATAGATGGGTTGAATTTCTGCACGTAGAAGCAAAAGGC [A27G G33A] | 0.814
14 | GAGACCGCAACTGAAAAGTTGTTATCGGAAATGGATTGGTTGAATTTCTGCACGTAGAAGCAAAAGGC [A27G G37T] | 0.0232
15 | GAGACCGCAACTGAAAAGTTGTTATCGGAAATGGATCGGTTGAATTTCTGCACGTAGAAGCAAAAGGC [A27G G37C] | 0.00672
16 | GAGACCGCAACTGAAAAGTTGTTATCGGAAATGGATAGGTTGAATTTCTGCACGTAGAAGCAAAAGGC [A27G G37A] | 0.00716
17 | GAGACCGCAACTGAAAAGTTGTTATCTGAAATGGATAGGTTGAATTTCTGCACGTAGAAGCAAAAGGC [A27T G37A] | 0.0217
18 | GAGACCGCAACTGAAAAGTTGTTATCTGAAATGGATCGGTTGAATTTCTGCACGTAGAAGCAAAAGGC [A27T G37C] | 0.00946
19 | GAGACCGCAACTGAAAAGTTGTTATCTGAAATGGATTGGTTGAATTTCTGCACGTAGAAGCAAAAGGC [A27T G37T] | 0.0547
20 | GAGACCGCAACTGAAAAGTTGTTATCTGAAATGGATGGGTTGGATTTCTGCACGTAGAAGCAAAAGGC [A27T A43G] | 0.281

Row | Variant | fraction ligated
21 | GAGACCGCAACTGAAAAGTTGTTATCTGAAATGGATGGGTTGCATTTCTGCACGTAGAAGCAAAAGGC [A27T A43C] | 0.336
22 | GAGACCGCAACTGAAAAGTTGTTATCTGAAATGGATGGGTTGTATTTCTGCACGTAGAAGCAAAAGGC [A27T A43T] | 0.412
23 | GAGACCGCAACTGAAAAGTTGTTATCAAATATGGATGGGTTGAATTTCTGCACGTAGAAGCAAAAGGC [G28A A30T] | 0.814
24 | GAGACCGCAACTGAAAAGTTGTTATCAAAGATGGATGGGTTGAATTTCTGCACGTAGAAGCAAAAGGC [G28A A30G] | 0.816
25 | GAGACCGCAACTGAAAAGTTGTTATCAAACATGGATGGGTTGAATTTCTGCACGTAGAAGCAAAAGGC [G28A A30C] | 0.802
26 | GAGACCGCAACTGAAAAGTTGTTATCTGAAAGGGATGGGTTGAATTTCTGCACGTAGAAGCAAAAGGC [A27T T32G] | 0.0604
27 | GAGACCGCAACTGAAAAGTTGTTATCTGAAAAGGATGGGTTGAATTTCTGCACGTAGAAGCAAAAGGC [A27T T32A] | 0.0711
28 | GAGACCGCAACTGAAAAGTTGTTATCTGAAACGGATGGGTTGAATTTCTGCACGTAGAAGCAAAAGGC [A27T T32C] | 0.0794
29 | GAGACCGCAACTGAAAAGTTGTTATCTGAAATGGATGGGTTGAGTTTCTGCACGTAGAAGCAAAAGGC [A27T A44G] | 0.825
30 | GAGACCGCAACTGAAAAGTTGTTATCTGAAATGGATGGGTTGATTTTCTGCACGTAGAAGCAAAAGGC [A27T A44T] | 0.827
31 | GAGACCGCAACTGAAAAGTTGTTATCTGAAATGGATGGGTTGACTTTCTGCACGTAGAAGCAAAAGGC [A27T A44C] | 0.766
32 | GAGACCGCAACTGAAAAGTTGTTATCGGAAATGAATGGGTTGAATTTCTGCACGTAGAAGCAAAAGGC [A27G G34A] | 0.207
33 | GAGACCGCAACTGAAAAGTTGTTATCGGAAATGTATGGGTTGAATTTCTGCACGTAGAAGCAAAAGGC [A27G G34T] | 0.00742
34 | GAGACCGCAACTGAAAAGTTGTTATCGGAAATGCATGGGTTGAATTTCTGCACGTAGAAGCAAAAGGC [A27G G34C] | 0.00194
35 | GAGACCGCAACTGAAAAGTTGTTATCAAAACTGGATGGGTTGAATTTCTGCACGTAGAAGCAAAAGGC [G28A A31C] | 0.802
36 | GAGACCGCAACTGAAAAGTTGTTATCAAAAGTGGATGGGTTGAATTTCTGCACGTAGAAGCAAAAGGC [G28A A31G] | 0.799
37 | GAGACCGCAACTGAAAAGTTGTTATCAAAATTGGATGGGTTGAATTTCTGCACGTAGAAGCAAAAGGC [G28A A31T] | 0.821
38 | GAGACCGCAACTGAAAAGTTGTTATCTGAAATGGATGGGTTTAATTTCTGCACGTAGAAGCAAAAGGC [A27T G42T] | 0.444
39 | GAGACCGCAACTGAAAAGTTGTTATCTGAAATGGATGGGTTAAATTTCTGCACGTAGAAGCAAAAGGC [A27T G42A] | 0.698
